From patent US20210277441A1, “METHOD OF SELECTING A POLYPEPTIDE OF INTEREST” (IMPERIAL COLLEGE INNOVATIONS LIMITED, priority 2018, published 2021)

Columns and labels:
[1] = substrate: CC1=NCCC1; test: Kinetics of parental MsIRED, 2-methylpyrroline reduction with NADPH; format: biochemical, Myxococcus stipitatus; conditions: other: cofactor NADPH (0.25 mM); enzyme 1.2 uM
[2] = substrate: CC1=NCCC1; test: Kinetics of evolved MsIRED-s, 2-methylpyrroline reduction with NADH; format: biochemical, Myxococcus stipitatus; conditions: other: cofactor NADH (0.25 mM); enzyme 1.25 uM
[3] = substrate: CC(C)O; test: purified protein, by the assay type; format: biochemical, Clostridium beijerinckii; conditions: other: cofactor NADP+ (1 mM); enzyme 110 nM

B1: Myxococcus stipitatus imine reductase (MsIRED), wild type, SEQ ID NO: 34 (Myxococcus stipitatus DSM 14675) (protein)
chain: MKPTLTVIGAGRMGSALIKAFLQSGYTTTVWNRTKAKSEPLAKLGAHLADTVRDAVKRSDIIVVNVLDYDTSDQLLRQDEVTRELRGKLLVQLTSGSPALAREQETWARQHGIDYLDGAIMATPDFIGQAECALLYSGSAALFEKHRAVLNVLGGATSHVGEDVGHASALDSALLFQMWGTLFGTLQALAISRAEGIPLEKTTAFIKLTEPVTQGAVADVLTRVQQNRLTADAQTLASLEAHNVAFQHLLALCEERNIHRGVADAMYSVIREAVKAGHGKDDFAILTRFLK
In the case of B1, the Km [1] is reported as 3.56 mM mM and the kcat [1] is reported as 89.8 min-1 min-1.

B2: Myxococcus stipitatus imine reductase (MsIRED) variant MsIRED-s (pLS133_1), N32E/R33V/T34R/K37R, SEQ ID NO: 35 (Myxococcus stipitatus DSM 14675; … (protein)
chain: MKPTLTVIGAGRMGSALIKAFLQSGYTTTVWEVRKARSEPLAKLGAHLADTVRDAVKRSDIIVVNVLDYDTSDQLLRQDEVTRELRGKLLVQLTSGSPALAREQETWARQHGIDYLDGAIMATPDFIGQAECALLYSGSAALFEKHRAVLNVLGGATSHVGEDVGHASALDSALLFQMWGTLFGTLQALAISRAEGIPLEKTTAFIKLTEPVTQGAVADVLTRVQQNRLTADAQTLASLEAHNVAFQHLLALCEERNIHRGVADAMYSVIREAVKAGHGKDDFAILTRFLK
For B2, the Km [2] was 19.57 mM mM and the kcat [2] was 78.1 min-1 min-1.

B3: Clostridium beijerinckii alcohol dehydrogenase (CBADH), wild type, SEQ ID NO: 1 (Clostridium beijerinckii) (protein)
chain: MKGFAMLGINKLGWIEKERPVAGSYDAIVRPLAVSPCTSDIHTVFEGALGDRKNMILGHEAVGEVVEVGSEVKDFKPGDRVIVPCTTPDWRSLEVQAGFQQHSNGMLAGWKFSNFKDGVFGEYFHVNDADMNLAILPKDMPLENAVMITDMMTTGFHGAELADIQMGSSVVVIGIGAVGLMGIAGAKLRGAGRIIGVGSRPICVEAAKFYGATDILNYKNGHIVDQVMKLTNGKGVDRVIMAGGGSETLSQAVSMVKPGGIISNINYHGSGDALLIPRVEWGCGMAHKTIKGGLCPGGRLRAEMLRDMVVYNRVDLSKLVTHVYHGFDHIEEALLLMKDKPKDLIKAVVIL
Work on B3 yielded a Km [3] of 5.80 mM mM and a kcat [3] of 1185.6 min-1 min-1.
